Source: patent US20210388087A1 (Chugai, published 2021)
Substitutions are numbered along the chain they refer to. Names and notes keep the numbering of the source.

B1: H183/L072 VH V63L (antibody, name in Kabat numbering, V domains shown)
VH: QVQLVESGGGLVQPGRSLRLSCAASGFTFSNAWMHWVRQAPGKGLEWVAQIKDKGNAYAAYYAPSLKGRFTISRDDSKNSIYLQMNSLKTEDTAVYYCHYVHYASASTVLPAFGVDAWGQGTTVTVSS
VL: DIVMTQSPLSLPVTPGEPASISCQASQELVHMNRNTYLHWYQQKPGQAPRLLIYKVSNRFPGVPDRFSGSGSGTDFTLKISRVEAEDVGVYYCAQGTSVPFTFGQGTKLEIK
B2: H183/L072 VH V100iP (antibody, name in Kabat numbering, V domains shown)
VH: B1 VH with L66V, V115P
VL: B1 VL
B3: H183/L072 VH W33I (antibody, name in Kabat numbering, V domains shown)
VH: B1 VH with W33I, L66V
VL: B1 VL
B4: H183/L072 VH W33K (antibody, name in Kabat numbering, V domains shown)
VH: B1 VH with W33K, L66V
VL: B1 VL
B5: H183/L072 VH Y55D (antibody, name in Kabat numbering, V domains shown)
VH: B1 VH with Y58D, L66V
VL: B1 VL
B6: H183/L072 VH V63M (antibody, name in Kabat numbering, V domains shown)
VH: B1 VH with L66M
VL: B1 VL
B7: H183/L072 VH V95M (antibody, name in Kabat numbering, V domains shown)
VH: B1 VH with L66V, V101M
VL: B1 VL
B8: H183/L072 VH Y55A (antibody, name in Kabat numbering, V domains shown)
VH: B1 VH with Y58A, L66V
VL: B1 VL
B9: H183/L072 VH W33H (antibody, name in Kabat numbering, V domains shown)
VH: B1 VH with W33H, L66V
VL: B1 VL
B10: H183/L072 VH W33G (antibody, name in Kabat numbering, V domains shown)
VH: B1 VH with W33G, L66V
VL: B1 VL
B11: H183/L072 VH W33D (antibody, name in Kabat numbering, V domains shown)
VH: B1 VH with W33D, L66V
VL: B1 VL
B12: H183/L072 VH V100iL (antibody, name in Kabat numbering, V domains shown)
VH: B1 VH with L66V, V115L
VL: B1 VL
B13: H183/L072 VH W33L (antibody, name in Kabat numbering, V domains shown)
VH: B1 VH with W33L, L66V
VL: B1 VL
B14: H183/L072 VH W33R (antibody, name in Kabat numbering, V domains shown)
VH: B1 VH with W33R, L66V
VL: B1 VL
B15: H183/L072 VH V95I (antibody, name in Kabat numbering, V domains shown)
VH: B1 VH with L66V, V101I
VL: B1 VL
B16: H183/L072 VH V100cI (antibody, name in Kabat numbering, V domains shown)
VH: B1 VH with L66V, V109I
VL: B1 VL
B17: H183/L072 VH V100iM (antibody, name in Kabat numbering, V domains shown)
VH: B1 VH with L66V, V115M
VL: B1 VL
B18: H183/L072 VH V100iA (antibody, name in Kabat numbering, V domains shown)
VH: B1 VH with L66V, V115A
VL: B1 VL
B19: H183/L072 VH V100cM (antibody, name in Kabat numbering, V domains shown)
VH: B1 VH with L66V, V109M
VL: B1 VL
B20: H183/L072 VH Y55F (antibody, name in Kabat numbering, V domains shown)
VH: B1 VH with Y58F, L66V
VL: B1 VL
B21: H183/L072 VH V100cP (antibody, name in Kabat numbering, V domains shown)
VH: B1 VH with L66V, V109P
VL: B1 VL
B22: H183/L072 VH V100iI (antibody, name in Kabat numbering, V domains shown)
VH: B1 VH with L66V, V115I
VL: B1 VL
B23: H183/L072 VH V95P (antibody, name in Kabat numbering, V domains shown)
VH: B1 VH with L66V, V101P
VL: B1 VL
B24: H183/L072 VH W33M (antibody, name in Kabat numbering, V domains shown)
VH: B1 VH with W33M, L66V
VL: B1 VL
B25: H183/L072 VH W33F (antibody, name in Kabat numbering, V domains shown)
VH: B1 VH with W33F, L66V
VL: B1 VL
B26: H183/L072 VH W33V (antibody, name in Kabat numbering, V domains shown)
VH: B1 VH with W33V, L66V
VL: B1 VL
B27: H183/L072 VH W33Y (antibody, name in Kabat numbering, V domains shown)
VH: B1 VH with W33Y, L66V
VL: B1 VL
B28: H183/L072 VH V63P (antibody, name in Kabat numbering, V domains shown)
VH: B1 VH with L66P
VL: B1 VL
B29: H183/L072 VH Y55G (antibody, name in Kabat numbering, V domains shown)
VH: B1 VH with Y58G, L66V
VL: B1 VL
B30: H183/L072 VH W33P (antibody, name in Kabat numbering, V domains shown)
VH: B1 VH with W33P, L66V
VL: B1 VL
B31: H183/L072 VH V100cA (antibody, name in Kabat numbering, V domains shown)
VH: B1 VH with L66V, V109A
VL: B1 VL
B32: H183/L072 VH Y55E (antibody, name in Kabat numbering, V domains shown)
VH: B1 VH with Y58E, L66V
VL: B1 VL
B33: H183/L072 VH V95L (antibody, name in Kabat numbering, V domains shown)
VH: B1 VH with L66V, V101L
VL: B1 VL
B34: H183/L072 VH V100cL (antibody, name in Kabat numbering, V domains shown)
VH: B1 VH with L66V, V109L
VL: B1 VL
B35: H183/L072 VH W33Q (antibody, name in Kabat numbering, V domains shown)
VH: B1 VH with W33Q, L66V
VL: B1 VL
B36: H183/L072 VH V95A (antibody, name in Kabat numbering, V domains shown)
VH: B1 VH with L66V, V101A
VL: B1 VL
B37: H183/L072 VH W33A (antibody, name in Kabat numbering, V domains shown)
VH: B1 VH with W33A, L66V
VL: B1 VL
B38: H183/L072 VH Y55H (antibody, name in Kabat numbering, V domains shown)
VH: B1 VH with Y58H, L66V
VL: B1 VL
B39: H183/L072 VH W33N (antibody, name in Kabat numbering, V domains shown)
VH: B1 VH with W33N, L66V
VL: B1 VL
B40: H183/L072 VH W33E (antibody, name in Kabat numbering, V domains shown)
VH: B1 VH with W33E, L66V
VL: B1 VL
B41: H183/L072 VH W33S (antibody, name in Kabat numbering, V domains shown)
VH: B1 VH with W33S, L66V
VL: B1 VL
B42: H183/L072 VH W33T (antibody, name in Kabat numbering, V domains shown)
VH: B1 VH with W33T, L66V
VL: B1 VL

Target: T1, Human CD3eg linker (human)
T1 construct: Single chain: epsilon and gamma subunits of human CD3 joined by a 29-mer linker, Flag-tag at the C-terminus; also called recombinant human CD3
T1 chain: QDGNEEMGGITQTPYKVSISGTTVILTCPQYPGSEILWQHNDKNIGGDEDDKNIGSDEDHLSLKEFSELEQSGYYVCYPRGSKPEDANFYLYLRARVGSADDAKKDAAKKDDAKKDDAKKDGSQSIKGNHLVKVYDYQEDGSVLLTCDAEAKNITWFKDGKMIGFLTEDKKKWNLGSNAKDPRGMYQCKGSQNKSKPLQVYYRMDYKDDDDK
Assay: Biacore SPR, vs template H183/L072

| Binder | fold change of affinity |
| --- | --- |
| B1 | 1.6 fold |
| B2 | 1.2 fold |
| B3 | 0 fold |
| B4 | 0 fold |
| B5 | 0.4 fold |
| B6 | 1.4 fold |
| B7 | 0.3 fold |
| B8 | 0.4 fold |
| B9 | 0 fold |
| B10 | 0 fold |
| B11 | 0 fold |
| B12 | 1.8 fold |
| B13 | 0 fold |
| B14 | 0 fold |
| B15 | 7.5 fold |
| B16 | 1 fold |
| B17 | 5.6 fold |
| B18 | 4.6 fold |
| B19 | 1.2 fold |
| B20 | 0.8 fold |
| B21 | 1 fold |

| Binder | fold change of affinity |
| --- | --- |
| B22 | 0.8 fold |
| B23 | 0 fold |
| B24 | 0 fold |
| B25 | 0.4 fold |
| B26 | 0 fold |
| B27 | 0.1 fold |
| B28 | 1.2 fold |
| B29 | 0.6 fold |
| B30 | 0 fold |
| B31 | 1.1 fold |
| B32 | 0.6 fold |
| B33 | 0 fold |
| B34 | 1.2 fold |
| B35 | 0 fold |
| B36 | 0 fold |
| B37 | 0 fold |
| B38 | 0.7 fold |
| B39 | 0 fold |
| B40 | 0 fold |
| B41 | 0 fold |
| B42 | 0 fold |
